Laboratory results as given in patent publication US20240327480A1 (published 2024).
Ends that are not written are not given here. * marks the point of attachment. Biotin = O=C1N[C@H]2[C@H](CS[C@H]2CCCCC(=O)*)N1

What was measured:
[1] = target: T1, AA111-228 DNA-binding domain of RXR-alpha (human, UniProt P19793 111-228); assay: plate binding assay, 800 ng/well SA488-labelled peptide on 1 ug/well adsorbed RXRa-DBD
T1 construct: range 111-228; Bought recombinant protein (Abcam); also called RXRa-DBD; RXR-alpha DBD
T1 sequence (looked up): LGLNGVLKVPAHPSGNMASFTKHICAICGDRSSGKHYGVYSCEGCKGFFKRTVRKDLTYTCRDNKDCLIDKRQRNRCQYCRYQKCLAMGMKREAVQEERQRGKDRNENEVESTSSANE
Method: Experiment 4A. Binding of immodulin peptides to AA111-228 DNA-binding domain of RXR-alpha (RXRa-DBD). 1 ug/well recombinant RXRa-DBD (Abcam, Cambridge, MA) was adsorbed to wells of a 96-well plate for 60 minutes at room temperature, then blocked with 200 uL 1% bovine serum albumin (BSA) in PBS buffer overnight. Plate was washed and 800 ng/well Streptavidin-Alexa 488 conjugate (SA488)-labelled immX peptide was added. The plate was incubated for 60 min at room temperature, washed and counted in a standard fluorometer (excitation/emission 485/525 nm). Background (buffer alone) was subtracted.

[2] = target: T2, RXR-alpha ligand-binding domain (human, UniProt P19793 223-462, limits assumed); assay: plate binding assay, 800 ng/well SA488-labelled peptide on 100 ng/well adsorbed domain
T2 construct: Bought recombinant protein (Abcam); also called RXRa-LBD; RXR-alpha LBD
T2 sequence (looked up): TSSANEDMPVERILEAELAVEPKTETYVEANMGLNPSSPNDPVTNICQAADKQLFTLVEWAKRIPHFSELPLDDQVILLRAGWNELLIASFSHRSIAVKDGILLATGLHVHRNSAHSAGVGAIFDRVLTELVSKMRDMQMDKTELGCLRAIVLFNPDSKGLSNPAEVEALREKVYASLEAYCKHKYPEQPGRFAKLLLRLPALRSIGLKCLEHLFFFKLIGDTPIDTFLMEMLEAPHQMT
Method: (§1) Experiment 4B. Binding of immodulin peptides to RXR isoforms and domains. 100 ng/well recombinant human RXRa-DBD or RXRa-LBD, or 400 ng/well full length RXR-alpha, RXR-beta, RXR-gamma or PPAR-gamma (Abcam, Cambridge, MA) was adsorbed to wells of a 96-well plate for 60 minutes at room temperature, then blocked with 200 uL 1% BSA in PBS buffer overnight. The plate was washed with PBS and 800 ng/well Streptavidin-Alexa 488 conjugate (SA488)-labelled peptide was added. The plate was incubated for 2 hours at room temperature, washed and counted in a fluorometer (excitation/emission 485/525 nm).

[3] = target: T1, AA111-228 DNA-binding domain of …; assay: as above
Method: as §1

full length RXR-beta = target: T3, full length RXR-beta (human, UniProt P28702 1-533); assay: plate binding assay, 800 ng/well SA488-labelled peptide on 400 ng/well adsorbed receptor
T3 construct: mature; also called RXRβ; NR2B2
T3 sequence (looked up): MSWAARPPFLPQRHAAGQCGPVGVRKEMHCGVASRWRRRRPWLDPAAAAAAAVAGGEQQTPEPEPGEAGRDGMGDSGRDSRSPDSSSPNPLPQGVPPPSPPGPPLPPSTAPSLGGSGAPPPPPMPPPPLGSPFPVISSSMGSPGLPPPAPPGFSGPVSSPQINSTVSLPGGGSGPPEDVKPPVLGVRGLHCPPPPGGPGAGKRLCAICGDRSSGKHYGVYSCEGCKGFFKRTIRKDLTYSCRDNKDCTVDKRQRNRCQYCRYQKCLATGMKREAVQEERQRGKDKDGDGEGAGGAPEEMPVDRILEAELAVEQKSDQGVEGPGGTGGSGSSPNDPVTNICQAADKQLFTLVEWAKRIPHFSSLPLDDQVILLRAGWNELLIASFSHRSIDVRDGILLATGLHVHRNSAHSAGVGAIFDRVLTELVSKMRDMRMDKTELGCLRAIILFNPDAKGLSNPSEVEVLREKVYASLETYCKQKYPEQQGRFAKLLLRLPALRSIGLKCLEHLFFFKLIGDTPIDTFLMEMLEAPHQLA
Method: as §1

full length RXR-gamma = target: T4, full length RXR-gamma (human, UniProt P48443 1-463); assay: as above
T4 construct: mature; also called RXRγ; NR2B3
T4 sequence (looked up): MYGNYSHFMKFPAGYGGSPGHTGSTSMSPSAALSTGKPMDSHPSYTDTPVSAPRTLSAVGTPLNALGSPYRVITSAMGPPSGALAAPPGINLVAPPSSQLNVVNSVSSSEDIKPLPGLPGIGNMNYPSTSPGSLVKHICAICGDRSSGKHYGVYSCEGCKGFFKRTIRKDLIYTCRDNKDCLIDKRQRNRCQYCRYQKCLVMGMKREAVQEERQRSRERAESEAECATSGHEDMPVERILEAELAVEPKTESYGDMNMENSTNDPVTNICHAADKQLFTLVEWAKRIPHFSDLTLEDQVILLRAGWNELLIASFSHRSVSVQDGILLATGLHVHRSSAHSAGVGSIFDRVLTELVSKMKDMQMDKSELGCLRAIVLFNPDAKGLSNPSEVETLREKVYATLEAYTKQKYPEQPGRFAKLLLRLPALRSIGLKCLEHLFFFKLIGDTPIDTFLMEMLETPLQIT
Method: as §1

full length RXR-alpha = target: T5, full length RXR-alpha (human, UniProt P19793 1-462); assay: as above
T5 construct: mature; also called RXRα; NR2B1
T5 sequence (looked up): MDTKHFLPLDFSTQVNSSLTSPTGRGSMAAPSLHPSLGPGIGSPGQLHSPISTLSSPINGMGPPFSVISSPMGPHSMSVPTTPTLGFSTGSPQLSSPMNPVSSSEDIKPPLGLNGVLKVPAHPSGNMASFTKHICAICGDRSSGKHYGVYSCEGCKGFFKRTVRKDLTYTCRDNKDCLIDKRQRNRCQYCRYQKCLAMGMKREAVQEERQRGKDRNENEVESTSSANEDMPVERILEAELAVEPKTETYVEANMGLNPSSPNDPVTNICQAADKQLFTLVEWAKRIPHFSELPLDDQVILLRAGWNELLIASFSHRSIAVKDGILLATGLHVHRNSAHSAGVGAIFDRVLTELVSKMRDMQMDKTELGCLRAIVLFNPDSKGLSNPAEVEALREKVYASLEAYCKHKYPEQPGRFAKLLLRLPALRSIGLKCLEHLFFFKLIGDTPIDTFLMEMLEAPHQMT
Method: as §1

full length PPAR-gamma = target: T6, full length PPAR-gamma (human, UniProt P37231 1-505); assay: as above
T6 construct: mature
T6 sequence (looked up): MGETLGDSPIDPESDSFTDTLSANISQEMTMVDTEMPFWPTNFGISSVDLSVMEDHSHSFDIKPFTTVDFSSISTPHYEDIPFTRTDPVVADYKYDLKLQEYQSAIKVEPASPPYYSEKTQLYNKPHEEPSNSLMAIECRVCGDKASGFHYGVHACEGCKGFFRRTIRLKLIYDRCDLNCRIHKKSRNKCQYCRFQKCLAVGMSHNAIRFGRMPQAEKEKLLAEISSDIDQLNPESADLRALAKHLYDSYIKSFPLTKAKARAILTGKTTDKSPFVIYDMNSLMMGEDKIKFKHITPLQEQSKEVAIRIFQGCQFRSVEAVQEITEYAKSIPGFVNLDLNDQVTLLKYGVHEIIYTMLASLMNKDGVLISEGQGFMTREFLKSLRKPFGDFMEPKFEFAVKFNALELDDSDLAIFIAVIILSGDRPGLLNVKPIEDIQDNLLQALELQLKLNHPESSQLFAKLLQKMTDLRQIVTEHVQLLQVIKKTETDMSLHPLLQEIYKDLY
Method: as §1

[4] = target: T7, full-length human Nur77 (NR4A1) (human, UniProt P22736 1-598); assay: plate binding assay, SA488-labelled peptide on adsorbed Nur77, fluorescence
T7 construct: mature
Method: Experiment 4C. Binding of immodulin peptides to full-length human Nur77 (NR4A1). 400 ng/well recombinant human Nur77 protein (NR4A1) purchased from Abcam Inc, Cambridge, MA, was adsorbed to wells of a 96-well plate for 90 minutes at room temperature, then blocked with 200 uL 1% BSA in PBS buffer overnight. […] The plate was incubated for 60 min at room temperature, washed and counted in a standard fluorometer (excitation/emission 485/525 nm). Background (buffer alone) was subtracted.

T7 sequence (P22736 whole entry): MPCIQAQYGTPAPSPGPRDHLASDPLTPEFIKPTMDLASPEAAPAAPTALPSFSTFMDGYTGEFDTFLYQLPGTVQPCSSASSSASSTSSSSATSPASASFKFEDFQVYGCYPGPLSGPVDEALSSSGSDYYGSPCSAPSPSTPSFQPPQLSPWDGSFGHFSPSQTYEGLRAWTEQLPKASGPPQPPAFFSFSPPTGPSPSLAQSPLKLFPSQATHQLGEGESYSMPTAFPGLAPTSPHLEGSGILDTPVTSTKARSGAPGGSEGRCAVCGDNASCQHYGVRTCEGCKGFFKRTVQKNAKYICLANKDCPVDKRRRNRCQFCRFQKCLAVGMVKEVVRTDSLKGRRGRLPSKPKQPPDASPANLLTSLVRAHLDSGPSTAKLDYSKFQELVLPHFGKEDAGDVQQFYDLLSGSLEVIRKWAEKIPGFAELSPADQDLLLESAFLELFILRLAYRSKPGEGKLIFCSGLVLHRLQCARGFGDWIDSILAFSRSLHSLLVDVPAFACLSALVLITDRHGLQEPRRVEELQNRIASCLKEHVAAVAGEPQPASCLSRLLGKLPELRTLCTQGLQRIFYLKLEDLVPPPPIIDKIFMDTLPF

B1: imm3 (peptide)
peptide: Biotin-KKGFYKKKQCRPSKGRKRGFCW
modifications: cysteine pairing not given here; also: labelled with Streptavidin-Alexa 488 conjugate (SA488)
notes: Synthetic immodulin peptide derived from IGFBP-3; also called immodulin peptide-3
Fluorescence (background subtracted) [1]: 6570 fluorescence counts
fluorescence relative to imm3 binding (=100) [2]: 0.6 relative to imm3 binding (=100)
fluorescence relative to imm3 binding (=100) [3]: 22.2 relative to imm3 binding (=100)
fluorescence relative to imm3 binding (=100) (full length RXR-beta): 2.9 relative to imm3 binding (=100)
fluorescence relative to imm3 binding (=100) (full length RXR-gamma): 100 relative to imm3 binding (=100)
fluorescence relative to imm3 binding (=100) (full length RXR-alpha): 11.2 relative to imm3 binding (=100)
fluorescence relative to imm3 binding (=100) (full length PPAR-gamma): 2.1 relative to imm3 binding (=100)

B2: imm5 (peptide)
peptide: Biotin-RKGFYKRKQCKPSRGRKRGICW
modifications: cysteine pairing not given here; also: labelled with Streptavidin-Alexa 488 conjugate (SA488)
notes: Synthetic immodulin peptide derived from IGFBP-5; also called immodulin peptide-5
Fluorescence (background subtracted) [1]: 6800 fluorescence counts
fluorescence relative to imm3 binding (=100) [2]: 1.8 relative to imm3 binding (=100)
fluorescence relative to imm3 binding (=100) [3]: 22.7 relative to imm3 binding (=100)
fluorescence relative to imm3 binding (=100) (full length RXR-beta): 4 relative to imm3 binding (=100)
fluorescence relative to imm3 binding (=100) (full length RXR-gamma): 90 relative to imm3 binding (=100)
fluorescence relative to imm3 binding (=100) (full length RXR-alpha): 17.2 relative to imm3 binding (=100)
fluorescence relative to imm3 binding (=100) (full length PPAR-gamma): 1.6 relative to imm3 binding (=100)

B3: imm4 (peptide)
peptide: Biotin-RNGNFHPKQCHPALDGQRGKCW
modifications: cysteine pairing not given here; also: labelled with Streptavidin-Alexa 488 conjugate (SA488)
notes: Synthetic immodulin peptide derived from IGFBP-4
Fluorescence (background subtracted) [1]: 27 fluorescence counts
binding result [4]: no binding (tested: 333 ng/well peptide on 400 ng/well Nur77)
fluorescence relative to imm3 binding (=100) [2]: 3 relative to imm3 binding (=100)
fluorescence relative to imm3 binding (=100) [3]: 3.2 relative to imm3 binding (=100)
fluorescence relative to imm3 binding (=100) (full length RXR-beta): 0.3 relative to imm3 binding (=100)
fluorescence relative to imm3 binding (=100) (full length RXR-gamma): 3.6 relative to imm3 binding (=100)
fluorescence relative to imm3 binding (=100) (full length RXR-alpha): 3.6 relative to imm3 binding (=100)
fluorescence relative to imm3 binding (=100) (full length PPAR-gamma): 0.1 relative to imm3 binding (=100)

B4: imm6 (peptide)
peptide: Biotin-HRGFYRKRQCRSSQGQRRGPCW
modifications: cysteine pairing not given here; also: labelled with Streptavidin-Alexa 488 conjugate (SA488)
notes: Synthetic immodulin peptide derived from IGFBP-6; also called immodulin peptide-6
Fluorescence (background subtracted) [1]: 587 fluorescence counts
fluorescence relative to imm3 binding (=100) [2]: 1.6 relative to imm3 binding (=100)
fluorescence relative to imm3 binding (=100) [3]: 22.9 relative to imm3 binding (=100)
fluorescence relative to imm3 binding (=100) (full length RXR-beta): 4.7 relative to imm3 binding (=100)
fluorescence relative to imm3 binding (=100) (full length RXR-gamma): 42 relative to imm3 binding (=100)
fluorescence relative to imm3 binding (=100) (full length RXR-alpha): 12.9 relative to imm3 binding (=100)
fluorescence relative to imm3 binding (=100) (relative to imm3 binding (=100)) (full length PPAR-gamma): 6.8
